Biological target: the molecule itself
Test: cross-linking

B1: PomA-L22C/T33C (natural protein, Vibrio alginolyticus, UniProt O06873 1-253, looked up)
chain: MDLATLLGLIGGFAFVIMAMVCGGSIGMFVDVCSILIVVGGSIFVVLMKFTMGQFFGATKIAGKAFMFKADEPEDLIAKIVEMADAARKGGFLALEEMEINNTFMQKGIDLLVDGHDADVVRAALKKDIALTDERHTQGTGVFRAFGDVAPAMGMIGTLVGLVAMLSNMDDPKAIGPAMAVALLTTLYGAILSNMVFFPIADKLSLRRDQETLNRRLIMDGVLAIQDGQNPRVIDSYLKNYLNEGKRALEIDE
- stoichiometry N: ≤ 5

Source: article doi:10.1101/2021.10.27.466211 (bioRxiv, 2021)
